T1: porcine kidney aminopeptidase N (APN), purified (Sigma) (porcine (Sus scrofa), UniProt P15145 33-963, biotinylated (1:3 ratio) when used as ligand in BLI)
T1 construct: Used coated in ELISA and biotinylated on SAX biosensors in BLI; also called purified kidney APN; porcine APN
T1 sequence: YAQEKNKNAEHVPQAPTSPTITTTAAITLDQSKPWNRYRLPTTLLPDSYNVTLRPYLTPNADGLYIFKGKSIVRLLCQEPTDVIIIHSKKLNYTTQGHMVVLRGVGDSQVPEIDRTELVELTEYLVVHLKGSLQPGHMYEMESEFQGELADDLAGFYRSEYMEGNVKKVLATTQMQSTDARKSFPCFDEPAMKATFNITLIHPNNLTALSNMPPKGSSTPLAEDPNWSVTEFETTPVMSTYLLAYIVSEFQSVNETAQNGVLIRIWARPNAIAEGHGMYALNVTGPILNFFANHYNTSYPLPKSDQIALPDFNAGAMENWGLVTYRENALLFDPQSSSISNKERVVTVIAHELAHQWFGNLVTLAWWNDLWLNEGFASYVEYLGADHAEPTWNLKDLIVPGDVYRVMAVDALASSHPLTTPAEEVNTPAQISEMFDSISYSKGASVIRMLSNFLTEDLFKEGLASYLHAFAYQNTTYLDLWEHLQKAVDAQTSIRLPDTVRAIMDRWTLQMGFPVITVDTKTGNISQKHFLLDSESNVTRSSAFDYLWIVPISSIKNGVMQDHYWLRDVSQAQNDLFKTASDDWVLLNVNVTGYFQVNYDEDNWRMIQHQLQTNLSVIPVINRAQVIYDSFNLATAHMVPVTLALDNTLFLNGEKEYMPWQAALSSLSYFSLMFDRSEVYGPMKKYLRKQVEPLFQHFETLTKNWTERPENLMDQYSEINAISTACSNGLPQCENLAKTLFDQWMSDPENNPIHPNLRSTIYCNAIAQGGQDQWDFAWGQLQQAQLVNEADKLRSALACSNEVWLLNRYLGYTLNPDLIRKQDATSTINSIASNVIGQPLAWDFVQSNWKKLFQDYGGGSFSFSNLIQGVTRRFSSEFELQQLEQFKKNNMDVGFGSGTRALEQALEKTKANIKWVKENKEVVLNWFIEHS

B1: α-APN-mIgG1 (clone IMM013), APN-specific mouse IgG1 monoclonal antibody (antibody)
heavy: QAYLQQSGAELVRSGASVKMSCKASGYTFTSYNMHWVKQTPGQGLEWIGYIYPGNGDINYNQKFKGKATLTADTSSNTAYMQISSLTSEDSAVYFCARGGVFDYWGQGTTLIVSSAKTTPPSVYPLAPGSAAQTNSMVTLGCLVKGYFPEPVTVTWNSGSLSSGVHTFPAVLQSDLYTLSSSVTVPSSTWPSETVTCNVAHPASSTKVDKKIVPRDCGCKPCICTVPEVSSVFIFPPKPKDVLTITLTPKVTCVVVDISKDDPEVQFSWFVDDVEVHTAQTQPREEQFNSTFRSVSELPIMHQDWLNGKEFKCRVNSAAFPAPIEKTISKTKGRPKAPQVYTIPPPKEQMAKDKVSLTCMITDFFPEDITVEWQWNGQPAENYKNTQPIMDTDGSYFVYSKLNVQKSNWEAGNTFTCSVLHEGLHNHHTEKSLSHSPGK
light: QIVLTQSPAIVSASPGEKVTITCSGSSSVNYMHWFQQKPGTSPKLWIYSTSNLASGVPGRFSGSGSGTSYSLTISRMEAEDAATYYCQQRTSYPYTFGGGTKLEIKRADAAPTVSIFPPSSEQLTSGGASVVCFLNNFYPKDINVKWKIDGSERQNGVLNSWTDQDSKDSTYSMSSTLTLTKDEYERHNSYTCEATHKTSTSPIVKSFNRNEC
notes: Purified from hybridoma supernatant by protein G; also called IMMO13; α-APN mAb (clone IMM013)
B2: α-APN-mIgG1-FedF fusion construct (clone IMM013 mouse IgG1 with FedF15-165 fused to the heavy chain) (other)
heavy: QAYLQQSGAELVRSGASVKMSCKASGYTFTSYNMHWVKQTPGQGLEWIGYIYPGNGDINYNQKFKGKATLTADTSSNTAYMQISSLTSEDSAVYFCARGGVFDYWGQGTTLIVSSAKTTPPSVYPLAPGSAAQTNSMVTLGCLVKGYFPEPVTVTWNSGSLSSGVHTFPAVLQSDLYTLSSSVTVPSSTWPSETVTCNVAHPASSTKVDKKIVPRDCGCKPCICTVPEVSSVFIFPPKPKDVLTITLTPKVTCVVVDISKDDPEVQFSWFVDDVEVHTAQTQPREEQFNSTFRSVSELPIMHQDWLNGKEFKCRVNSAAFPAPIEKTISKTKGRPKAPQVYTIPPPKEQMAKDKVSLTCMITDFFPEDITVEWQWNGQPAENYKNTQPIMDTDGSYFVYSKLNVQKSNWEAGNTFTCSVLHEGLHNHHTEKSLSHSPGKGGGGSGGGGSGGGGSNSSASSAQVTGTLLGTGKTNTTQMPALYTWQHQIYNVNFIPSSSGTLTCQAGTILVWKNGRETQYALECRVSIHHSSGSINESQWGQQSQVGFGTACGNKKCRFTGFEISLRIPPNAQTYPLSSGDLKGSFSLTNKEVNWSASIYVPAIAK
light: B1 light
notes: also called FedF-linked α-APN-mIgG1; aAPN-mIgG1-FedF

Tests used:
[1] = target: T1, porcine kidney aminopeptidase N (APN), …; assay: BLI (Octet RED96), biotinylated porcine APN on SAX biosensor, mAb at 100 nM, 1:1 local full fit
[2] = target: T1, porcine kidney aminopeptidase N (APN), …; assay: bio-layer interferometry, biotinylated porcine APN on SAX biosensor, series of analyte concentrations (not labelled on the sheet)

| Binder | Kd [1] [nM] | Kd [2] [nM] |
| --- | --- | --- |
| B1 | 1.6 | 1.4 |
| B2 | – | 5.1 |
